According to a protein production outcome set (Wang et al. 2014):

Test: label from the status in PepcDB records

Row | Sequence | protein production
1 | MFGGIENVKAAEPKVYQFDFGSGSMEPGYIGVRASDRYDRSKGYGFQTPENMRDVAASGAGVKSDAVEFLAYGTKSNNTFNVDLPNGLYEVKVTLGNTARASVAAEGVFQVINMTGDGAEDTFQIPVTDGQLNLLVTEGKAGTAFTLSALKIKKLSDQPVTNRTIYVGGDSTVCNYYPLNSSKQAGWGQMLPHYIDKHTFQVRNMASGGQIARGFRNDGQLEAILKYIKPGDYFMLQLGINDTNPKHKESEAEFKEVMRDMIRQVKAKGADVILSTPQGRATDFTSEGIHSSVNRWYRASILALAEEEKTYLIDLNVLSSAYFTSIGPERTLGLYMDGDTLHPNRAGADALARLAVQELKRQGIAGFLEHHHHHH | not failed
2 | MFHKALITFIVLWFFLNGLGAYDFKHCQAFFKKASLQKGGVALKELPKGVYLYYSKTYPKHAKVIKSDPFVGLYLLQSAPSEYVYTLRDLDKDALIRPMASIGDKEALETRLLVGQRGYERYAQISQKTQKNGVISNICYQMLGLGVGGNGFIETKFIKRFLNQQEPYYGDIGVRLEEHHKRLVVVQFDPFFPKNPFLKNDEILAINHQKIHSLAEFEWVVSNLKYQSLAKVEIKRNHKVKEVTLKVNKRYGGFLLKDTFLERYGIALDERFIITKIGAHLPKGLDFLKLGDRILWVNYKSVASNPKALREALSAPKIELLVLRKGFEFYIKVR | failed
3 | MFHYTVDVSTGMNETIERLEESLKQEGFGVLWQFSVTEKLQEKGLDFSTPMVILEVCNPQEAARVLNENLLVGYFLPCKLVVYQENGTTKIGMPKPTMLVGMMNDPALKEIAADIEKRLAACLDRCR | not failed
4 | MFIGRNQELTALNKLYQEDSFQFAVIYGRRRIGKTSLINQFLKGKRAIYFTGLEENALENLARFSDAIHAYEDPSYLDGPNFASFEQAFKYLVHLSEKNDRLILVIDEFPYLAKAYPPISSMLQSYIDHYFKQNKLFLILCGSSMPFMEKQVLGYKSPLYGRRTAQFKLKPFSLHDAEEFFPQLNKEEVFELNAITGGIPLYLSLMSPKKSLRENIKDNFLTTSAMLYAEPMSLLNQELREPASYSSIISAIAAGASRQSEISTKTGIASGALSPYLDNLIDLGIVEKRLPVTELDKARSRKTIYAIKDGMFRFWYTFVGKRVSFIERGITEPILDYIIKQLPHFMGPEFEKLSQEYLWSKLFDPDLVPEPFVNLGNWWGPDPKEKKQVEMDIVGFDDQKLNGYFGECKWKNEPISADILETLIYRSILFPTPKKNYYLFSKTGFTDKCQQLAQQVDCHLITFDMM | failed
5 | MFIHPHTSLTFEQCQKARVSRDSRFDGRFYVAVKTTGIFCRPICPANLPKEENVEYFTDKAQALKAGYRPCLRCRPDSAPGSWAWKGVETTFQRAISLIDRGELHHHSVSELAERVGISDRYLRMLFEQYLGMSPKQYAQYQQLMFAKQLLHSSSMSVTEVGFAAGFNSTRRFNDAFQKFLKLTPSQVRRREFDGVSTNRIALSYRGELNWQHMLDFYRLRAIEGVERVSGESYQRNVCLDNSKAWFKAIKGEGNLELEFEIEEVAKLQNLVSGIRRMFDLDTDICTVEQHLDYVAPGLVSNRGIRIPGVWNAWEAGVRAVLGQQVSVKAAIGQLNLLVKTLSGDADKRFFPTPDAIANADVSFLRMPQSRKETLVRFAQFMQSNAETDPQQWLALKGIGPWTVSYAQLRGQSQPDCFLDKDLVVKKAMQRYPSLNTHTAAPWGSYATFHLWNQS | failed
6 | MFIHVGSDKVLVKFIVSKFIKDYSNISNKKVRENYGILSSIMGLIVNLILFVIELSIGIFINSIAVIADAFHNLADVSASVITLIGFKLSNKPADKEHPFGHGRVEYLSALLVSAIILLVGVEFIKTSFLRILSPEPVSFNLISFIIMLIAIPLKLWLSLFNKNIGKKINSSALKASGADALNDVYILSSVILSLLVSAFSTISIDGYVGVLIGALIIWSAVNLMKDTIDPLLGQAPDPNLVKSIKKMALKCDVILGVHDLIIHNYGPGRTMISFHAEVPYNIPIMTLHSKIDETEKRISEELDIFVVIHMDPLLIGSPEVSEAKRYVSKILKDFPSVQSFHDFRIVGDGEDKKLIFDIVVPFDVDISEKKLSKLGDDIKSEIIRRHPHYDCVITVDRDYSGI | failed
7 | MFIKGVILSSYGVNGYARVKSISNNFCDFINLKNNKVLLKKSNSSSVEVKVVDVNIKGNSLFLKFEEIDTPEAVRPLIGFELWVDDSLASSLKEGEYYLGKLIGYAIVNNNKKLGEVVAFFEYLNSVFLEVRVGIKFFFIPFLSIYIGDINTQEKTIELKVLDLLKLEHHHHHH | failed
8 | MFIKLMRNIFSELTSHIQNMKLYFKRSLLVFSLMSSFCVASERSAWEEVYAKSQHKQTETALKLLQDRYHSLPEGAEKLYLTSKLHGYFVLKGQPYYGELVNSHDTYALTEQRFLDALNHEESLDYHSAEETYLTFYAEMKQKNDQDGMVLFEYHLCRLFQRHGRPYQARFYCSQMDQRLLNAEDPLFPRYRGLHLVANNLEFLGEYEEALQTYDLLLSLLPDYVDPSGIYNDVGLLMGTLGQYESALDYLNKALEYRLEQGNPLLIAQVEHSLGDTYFKQGRYEESILYFEQAKAHLTPANYLFGLAYVHLGLGKAYIELNNFVEGDQHLFQALEYVNQHKDQHLQGLIYLSLAQAHFKEQKYAQAIDYANQAVAISESASLPRIKAQAYLQLAKIAEAEQQYQEALSWYRQYAESELLLRNTEQRKAFEALDLAKAELEQKRGVNFWRENYQALAEKYEMLKWQRVSLSLLVIVFALILPIAHYRRRKECDQNQQDSLHGVLSRTSGLERLTHIEACQQTEHVHLLALLDIDQLRQFNERHGYERGDIALQNTINTLLHQLRAKEFVCRLGDDEFLVVMPNCRRTLSETRLFVLHHALNGKTPTDAKSTVGLSVTLSYLAVESGLASFTHFYPKLDSALSIAKQSGNGGLIDAADPTNALLTACS | failed
9 | MFISVLDLFKIGIGPSSSHTMGPMTAANVFRDHVDQLVSQTPDDLNYRVYCVLKGSLAFTGRGHATDRAVALGLHGHSPVSLAGEDVNALTAKLWATDTLQLTSGREIGFNPEDDIVFDKSDPLPQHPNGMIFYLLDEEGKKILSETFFSIGGGFICTLAEINQ | not failed
10 | MFIYFPKNYVWSMSTVIAATHGGSIGEIDEFCRPLLDKSSDDADVGTVEFLHAWIGGADKLIKMAEQDLEKNRELSAAKKYYRAALYYLIAERMQEQGHPERLKVYKRYLELAELYRKYKKDDVKRVEIPYQNSHLSAIYAKGKTTDEKQAIVVMMNGLDSTKELMSYCPLADELVERGISVLMVDQPGTGEAIRLQDLRAVYNSEIWASPIVDWLCEQPEIDQHRIAAFGISLGGYYCPRAVAFEPRFCCAAIWGANHDWRAVQHARLKREGENPVPHYWKHVEWVFGAQDQKEFFEIAENMHLNGVLDRIKVPFLVTHGEKDRQIPLKYAYETYDQLINSPDKELLVIDDEMGGVEHSSIDNPLNAGAYIADWLAEHLNGKTSK | failed
11 | MFKDKKMLKYIVIYSIIAFGILLTFNMVKDEMLYEKVDYSTFMQMLDKKEVKSVNFSGNQIEITPSDSSNLKGKILYTTNPAVAGITQPDLIKDLTAAGVGFNVTKPENYQLLGLLMSWVFPLILIFFVGRMMFSKMNNKMGGGVMSFGKNNAKLYAENETGITFKDVAGQDEAKESLVEIVDFLHDTRKYVEIGAKLPKGALLVGPPGTGKTLLAKAVAGEAKVPFFSMSGSDFVEMFVGMGAARVRDLFKQAEEKAPCIVFIDEIDAIGKSRDGAIQGNDEREQTLNQLLTEMDGFDSSKGVVILAATNRPEVLDKALLRPGRFDRRIIVDRPDLIGREEILKVHSRDVKLSDDVSLEEIAKSTPGAVGADLANIVNEAALRAVKHGRKFVIQEDLDEAVEVIIAGQEKRDRILSPKEKKIVAYHEVGHALVAALLNNTDPVHKITIVPRTMGALGYTMQLPEEEKYLVSKEEMIDQISVMLGGRAAEEVVFNSITTGASNDIERATQSARNMITIYGMSERFDMMALEAMSNRYLDGRPVRNCSETTAAIADEEVLQVIKKAHEKSIKILIENRELLDEITGVLLDKETIMGDEFMEIVYSKYPEKREADEKAKKEIQSLREQALAKRKEKEEAIKKAREEALRLEEEQRKQAELKAMIEAQEEAAKLARANNEANNDDLDSSKENEEVKSNVNDRATEEKKDDSSTNNKVDGE | failed
12 | MFKKKGCFMNQLEQKLEQDFGIVFSQKDLLETAFTHTSYANEHRLLNISHNERLEFLGDAALQLVISVYLYNRYPNKPEGEMSKMRSTIVREESLAGFTKACGFEQYIRLGKGEEKSGGRERATILGDLWEAFLGALYLDQGLPAVEKFLNQVMIPQVEKGNFDRVIDYKTALQERLQVNGKVDITYTVIDESGPAHAKEFTMQVAVDGKELSTGLGKSKKLAEQAAAKSALEQLGN | failed
13 | MFKKWLTWPVFYELTEIYTAPLNIMWFVLGSAIAQYHLGTVNWLNVTLCLVSVFIFDLAVNVSDNYYDYRHARDREGYAQKTNPIGRLQLPVAGVGRLALGLYLISLIPGIWLVMRTGWLVLVLGLVGYVIGIFYTAGPYPINATPLCETVVALAIAFLIELTCVVVSTYGQHPLTWSIVGTTFLLCLPLTLIFFCLQLANNTADRDEDILNHRYTLAYYLGKPGSVRLIQAFLVIGGIWPLVNVLLGLAPVVTIWVVLLLPIMWQGMRPFFEVQDKKKTFITTVKSASLFFILYPVLFVLGTWL | failed
14 | MFKNNSYKVGVLALALSMALTGCVSDGDDGEQGLKGEQGAPGVVGVDGNDGKSLPRDLNVEVVGRFATGIYGKSAAEIVQFHKSSNAAFAINGASNQIEVISLTNLSTTAVGNPVADESLTSNAFIFPLNVSVTNSAGVEKDMSLGAVNSIAIKKDLLAIAVEGEIKQAHGAILFYSLNELGEGTFIKAVEVGALPDMVTFTPDGSKALVANEGEPNTDYTNDPEGSISVISVVDLMPANVAKTINLSTDIVFSDDNLVPEDFDTDAKRLAILSKAGVKFAGPAGNTVAKDLEPEYITTSSNSKMAYVSLQENNAIGIINLEELTIEVKALGYKDWGKYQLDFSNKDEVPEFKSIQGLYGMYQPDTLASYTWNDTTFIVSANEGDARDYDGFSEEVRVKDIIDTDELNQTLSSELQSQYDVSGGKNYLGRLKVTTALGDEDQNGEFEKLFAYGARSFSIWDKNANLVFDSGDDFGKISAAIMGDNFNAAHTKNKGDNRSDDKGGEPEAIDVGEIAGRTYAFIAQERAGDLFVYDITNPFKTAFVTHYNNRDFTVDYEMDDDLADPCDSSEGMDCTKVNSAGDLGPESIKFVSAIDSPTSKPLLIIGNEVSGTVTVYQITEQ | failed
15 | MFKRFVLSLAFLIMAAVVSFQVIFTVPEHPQIITQTGSEITEDIRCIEFSGAKALDDNGELNLLVWNIYKQNRANWQSELELFSADKQLLLLQEASMTDSFKQWLVDGSWVSNQVSAFKALGSGAGVISIAQKQPIKACAYTSKEPWLRLPKSALYSQYRLSNGESLAVINVHAINFTVGTEEYTSQLSALETLLKQHSGPIVFAGDFNSWSEYRITAMKQALREANLREVQFSPDHRTQFITGLPLDHVFYRGLTLKNAKAPQSDASDHNPLLVSFTLND | failed
16 | MFKSNYKGYGSGIISAMAWGLDTVLVGVILSMAPFINTESAIMLAPFVSTFLHDFFSTLWMFIYMIFTRQVGKLFKSLKTPSTKYVILASIFGGPMGMTGYLLSVNYIGPSYAATISSIYPAVGAVLAAIFLKEKISRKGYIGLTISILGIALLGFGNDGGKASLIGFLFAGLSVLGWGSESVICSYGMKDEDISPKQALQIRQFISALFSGVIILPLLKAYPLVFEVLKGNVTFVIIGTALMGTISYVCYYTAIHKLGPTRAMGLNITYVVWAMIFDKVLLGHNITIKMVICALMVMIGSFVVATQPAHEEELTNVTNTAV | failed
17 | MFKSPENDSLVSAVFDSSPIGIQIIDLETGMREKINQTACVLLGDTKDNLMAKSVFEDCTWLGKDKFLFVIERLKENKTLKNHIVQFENHQGNELTISYDISEFKYRSKRLVTVSMNDVT | failed
18 | MFKTILLAYDGSEHARRAAEVAKAEAEAHGARLIVVHAYEPVPDYLGEPFFEEALRRRLERAEGVLEEARALTGVPKEDALLLEGVPAEAILQAARAEKADLIVMGTRGLGALGSLFLGSQSQRVVAEAPCPVLLVR | not failed
